± gives the uncertainty stated by the source.
Experiment: self-splicing fitness, log relative to wild type (ln ratio); higher = more splicing; Tetrahymena group I intron in knt gene, E. coli kanamycin selection, DiMSum; sequences stand for … in CUCUCU…GGAGGGAAAAGUUAUCAGGCAUGCACCUGGUAGCUAGUCUUUAAACCAAUAGAUUGCAUCGGUUUAAAAGGCAAGACCGUCAAAUUGCGGGAAAGGGGUCAACAGCCGUUCAGUACCAAGUCUCAGGGGAAACUUUGAGAUGGCCUUGCAAAGGGUAUGGUAAUAAGCUGACGGACAUGGUCCUAACCACGCAGCCAAGUCCUAAGUCAACAGAUCUUCUGUUGAUAUGGAUGCAGUUCACAGACUAAAUGUCGGUCGGGGAAGAUGUAUUCUUCUCAUAAGAUAUAGUCGGACCUCUCCUUAAUGGGAGCUAGCGGAUGAAGUGAUGCAACACUGGAGCCGCUGGGAACUAAUUUGUAUGCGAAAGUAUAUUGAUUAGUUUUGGAGUACUCGUGGUCG
Outline: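 Library with all eight P1ex-region intron nucleotides randomised, intron inside the knt kanamycin-resistance gene on pET-22b(+), in E. coli BL21(DE3). Cells grew overnight at 37°C or 30°C on LB agar with or without 25 μg/mL kanamycin (plus 100 μg/mL carbenicillin, 50 μM IPTG, 0.2% rhamnose), in six replicate transformations. Pooled colonies were amplicon-sequenced on Illumina HiSeq 2500. DiMSum fitness is the error-weighted combination of wild-type-normalised replicate fold changes, kanamycin versus none.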

Sequence	self-splicing fitness (ln) (30 °C)	self-splicing fitness (ln) (37 °C)
CACAAGCAAUAUUACGUCUA	-1.42 ± 0.087	-1.26 ± 0.084
CACAAGCAAUAUUACGUUAU	-2.95 ± 0.098	-2.7 ± 0.11
CACAAGCAAUAUUACGUUUC	-3.53 ± 0.19	-1.8 ± 0.17
CACCAGCAAUAUUACGAACC	-3.66 ± 0.28	-0.707 ± 0.25
CACCAGCAAUAUUACGAAGU	-3.79 ± 0.16	-1.46 ± 0.11
CACCAGCAAUAUUACGAGGA	-2.74 ± 0.14	-1.91 ± 0.13
CACCAGCAAUAUUACGAUUG	-0.914 ± 0.046	-0.088 ± 0.072
CACCAGCAAUAUUACGCAGG	-3.09 ± 0.1	-1.64 ± 0.1
CACCAGCAAUAUUACGCCAA	-2.95 ± 0.28	-3.23 ± 0.3
CACCAGCAAUAUUACGCCCC	-3.28 ± 0.38	–
CACCAGCAAUAUUACGCCUC	-3.14 ± 0.23	-1.9 ± 0.2
CACCAGCAAUAUUACGCGCC	-2.68 ± 0.17	-2.4 ± 0.2
CACCAGCAAUAUUACGCUUU	-3.8 ± 0.14	-1.94 ± 0.093
CACCAGCAAUAUUACGGACC	-2.62 ± 0.21	-1.72 ± 0.21
CACCAGCAAUAUUACGGCAA	-1.68 ± 0.099	-0.956 ± 0.1
CACCAGCAAUAUUACGGCGG	-0.993 ± 0.065	-0.567 ± 0.079
CACCAGCAAUAUUACGGGAA	-1.05 ± 0.059	-1.07 ± 0.075
CACCAGCAAUAUUACGUAAA	-3.49 ± 0.15	-1.6 ± 0.11
CACCAGCAAUAUUACGUAGA	-1.46 ± 0.052	-0.916 ± 0.064

Sequence	self-splicing fitness (ln) (30 °C)	self-splicing fitness (ln) (37 °C)
CACCAGCAAUAUUACGUCGG	-1.36 ± 0.059	-0.518 ± 0.072
CACCAGCAAUAUUACGUCUA	-2.84 ± 0.091	-1.79 ± 0.091
CACCAGCAAUAUUACGUCUG	-1.55 ± 0.056	-0.504 ± 0.07
CACCAGCAAUAUUACGUGAG	-3.8 ± 0.16	-2.26 ± 0.14
CACCAGCAAUAUUACGUGGA	-3.55 ± 0.12	-2.12 ± 0.09
CACGAGCAAUAUUACGAACG	-0.211 ± 0.12	0.033 ± 0.14
CACGAGCAAUAUUACGAGUC	–	-1.63 ± 0.29
CACGAGCAAUAUUACGAUCG	-1.14 ± 0.077	-0.291 ± 0.083
CACGAGCAAUAUUACGCCCA	-1.81 ± 0.4	-1.72 ± 0.28
CACGAGCAAUAUUACGCCGU	-3 ± 0.21	-2.26 ± 0.18
CACGAGCAAUAUUACGCGAU	-3.23 ± 0.21	-2.51 ± 0.41
CACGAGCAAUAUUACGCGCU	-4.22 ± 0.21	-2.01 ± 0.19
CACGAGCAAUAUUACGCUAU	-2.42 ± 0.21	-2.56 ± 0.28
CACGAGCAAUAUUACGCUGA	-3.57 ± 0.37	-2.02 ± 0.3
CACGAGCAAUAUUACGCUGG	-3.66 ± 0.16	-2.32 ± 0.16
CACGAGCAAUAUUACGCUUU	-3.71 ± 0.22	-2.89 ± 0.2
CACGAGCAAUAUUACGGGCG	-0.98 ± 0.11	-1.14 ± 0.15
CACGAGCAAUAUUACGGGCU	-4.17 ± 0.22	-3.5 ± 0.46
CACGAGCAAUAUUACGGUCA	-4.22 ± 0.39	-1.54 ± 0.16

Reference: the supplement of paper PMC7877785
